Series [1] deals with the molecule itself. The series is described as follows: X-ray fibre diffraction; mC-hnRNPA2-LCD hydrogel (~60 mg ml^-1, 4 °C) air-dried between two capillary glass rods; 100 K.
Series [2] deals with the molecule itself. The series is described as follows: crystal structure; hanging-drop vapour diffusion; segment 9.69 mg ml^-1 in water with 31 mM lithium hydroxide; reservoir 0.15 M ammonium acetate, 35% MPD, 0.1 M Bis-Tris pH 5.5.

B1: mCherry-hnRNPA2-LCD fusion protein (domain or fragment, human, UniProt P22626-2 181-341, looked up)
chain: MQEVQSSRSGRGGNFGFGDSRGGGGNFGPGPGSNFRGGSDGYGSGRGFGDGYNGYGGGPGGGNFGGSPGYGGGRGGYGGGGPGYGNQGGGYGGGYDNYGGGNYGSGNYNDFGNYNQQPSNYGPMKSGNFGGSRNMGGPYGGGNYGPGGSGGSGGYGGRSRY
notes: hnRNPA2 C-terminal low-complexity domain (LCD), human, residues 181-341 of the 341-residue protein (161 residues); printed length 341 = isoform A2 of HNRNPA2B1; Only Gly263-Tyr319 is ordered in the fibril core; also called mC-hnRNPA2-LCD; mCh-hnRNPA2-LCD; source: E. coli BL21(DE3), purified (HisTrap HP column, in 2 M guanidine HCl), dialysed and concentrated; not shown: mCherry, N-terminal, kept
On to B1, for which the binding result in series [1] is given as “binds”.

B2: hnRNPA2 mutant core segment GNYNVF (286-291, D290V) (peptide)
peptide: GNYNVF
notes: hexamer segment 286-291 of human hnRNPA2 LCD with the disease variant D290V (multisystem proteinopathy); numbers count on the 341-residue hnRNPA2 (isoform A2); also called mutant segment; disease-causing mutant core segment
On to B2, for which the binding result in series [2] is listed as “binds”.

These data come from paper PMC7427792, “CryoEM structure of the low-complexity domain of hnRNPA2 and its conversion to pathogenic amyloid” (Nature Communications, 2020).
